{"source": "paper PMC8452523", "about": "(Cell Reports, 2021)", "binders": {"B1": {"name": "REGN10933 (antibody, V domains shown)", "VH": "QVQLVESGGGLVKPGGSLRLSCAASGFTFSDYYMSWIRQAPGKGLEWVSYITYSGSTIYYADSVKGRFTISRDNAKSSLYLQMNSLRAEDTAVYYCARDRGTTMVPFDYWGQGTLVTVSS", "VL": "DIQMTQSPSSLSASVGDRVTITCQASQDITNYLNWYQQKPGKAPKLLIYAASNLETGVPSRFSGSGSGTDFTFTISGLQPEDIATYYCQQYDNLPLTFGGGTKVEIK"}}, "biological_target": "trimeric Spike, full B.1.351 variant (SARS-CoV-2, lineage B.1.351 (Beta), strain)", "assay": "Luminex bead-based binding assay"}
{"binder": "B1", "values": [{"measurement": "fold reduced binding affinity", "result": 15, "unit": "fold"}]}
